From patent KR20110120890A

Biological target: Her-2 (human) (UniProt P04626)
Experiment: antibody titration on FFPE SKBR-3 (positive) and MDA-MB-468 (negative) cells, non-proximal direct VeraTag release with 200 uM methylene blue, multi-parameter curve fit, single site

Kd: 8 µg/mL
Substance: Ab8-Pro11 (monoclonal antibody Ab8 against the cytoplasmic domain of HER2, Lab Vision, conjugated to VeraTag reporter Pro11)
